Experiments:
Test in all cases: Km for hydrolysis of fluorogenic substrate Arg2-2NA
[1] = substrate: N=C(N)NCCC[C@H](NC(=O)[C@@H](N)CCCNC(=N)N)C(=O)Nc1ccc2ccccc2c1; type: biochemical; conditions: other: pH 7.4 (20 mM Tris–HCl buffer), 25 °C, initial reaction rates
Method: (§1) The Km values for hydrolysis of fluorogenic substrate Arg2-2NA were determined at pH 7.4 (20 mM Tris–HCl buffer) and at 25 °C, from the initial reaction rates as previously described.[26]

[2] = substrate: N=C(N)NCCC[C@H](NC(=O)[C@@H](N)CCCNC(=N)N)C(=O)Nc1ccc2ccccc2c1; type: biochemical, Bacteroides thetaiotaomicron; conditions: other: pH 7.4 (20 mM Tris–HCl buffer), 25 °C, initial reaction rates, B. thetaiotaomicron DPP III
Method: as §1

[3] = substrate: N=C(N)NCCC[C@H](NC(=O)[C@@H](N)CCCNC(=N)N)C(=O)Nc1ccc2ccccc2c1; type: biochemical, yeast (Saccharomyces cerevisiae); conditions: other: pH 7.4 (20 mM Tris–HCl buffer), 25 °C, initial reaction rates, yeast DPP III
Method: as §1

B1: human DPP III (Homo sapiens) (protein)
chain: ADTQYILPNDIGVSSLDCREAFRLLSPTERLYAYHLSRAAWYGGLAVLLQTSPEAPYIYALLSRLFRAQDPDQLRQHALAEGLTEEEYQAFLVYAAGVYSNMGNYKSFGDTKFVPNLPKEKLERVILGSEAAQQHPEEVRGLWQTCGELMFSLEPRLRHLGLGKEGITTYFSGNCTMEDAKLAQDFLDSQNLSAYNTRLFKEVDGEGKPYYEVRLASVLGSEPSLDSEVTSKLKSYEFRGSPFQVTRGDYAPILQKVVEQLEKAKAYAANSHQGQMLAQYIESFTQGSIEAHKRGSRFWIQDKGPIVESYIGFIESYRDPFGSRGEFEGFVAVVNKAMSAKFERLVASAEQLLKELPWPPTFEKDKFLTPDFTSLDVLTFAGSGIPAGINIPNYDDLRQTEGFKNVSLGNVLAVAYATQREKLTFLEEDDKDLYILWKGPSFDVQVGLHELLGHGSGKLFVQDEKGAFNFDQETVINPETGEQIQSWYRSGETWDSKFSTIASSYEECRAESVGLYLCLHPQVLEIFGFEGADAEDVIYVNWLNMVRAGLLALEFYTPEAFNWRQAHMQARFVILRVLLEAGEGLVTITPTTGSDGRPDARVRLDRSKIRSVGKPALERFLRRLQVLKSTGDVAGGRALYEGYATVTDAPPECFLTLRDTVLLRKESRKLIVQPNTRLEGSDVQLLEYEASAAGLIRSFSERFPEDGPELEEILTQLATADARFWKGPSEAPSGQA
B1 showed a Km ([1]; human DPP III) of 6.0 µM.

B2: Porphyromonas gingivalis DPP III (Porphyromonas gingivalis W83) (protein)
chain: MTKETTQHRSGERIARFADIEVLSYRADLFGTLTPKQRMLCYHLSEAALRGRDITTIQNCRYNLWVRSLMERIYTHLSKSERTDDFALLEEYLFCIWFANGIHHHYSGAKFIARFSPGFLRAALREAGVELEPEEQVLLERVLYDTDFLPKQTEQSGEEDIIKASSVNFYAPGITRAEAESHYKNLIEALPENEKSCPPSFGLNTRLIRSTSGELKDEVCCIDGLYGPAIEAVVASLEAAIPYTENEEQAACIRLLCDYYRTGDIRLYDRFCIRWVENNRTRIDFINGFTEVYADPIGIHGSWEGLVHMQDEEAGRRTRIISEHAGWFEAHSPIDARFRKKNPHGISATVVNVLTIAGDSYPATPIGINLPNADWIRAEHGSKSVTIDNITDAYNHAARGTGLYEEFIPDEEVRRHVELHADLTDSLHTDLHECLGHGSGQLLPGVPGDALGEHASTLEETRADLFALYFLADPKMIELGLLTDPDAYKANYYKYMLNGLMTQLVRIKRGEEIEEAHMRNRALIARYVLEHAERPGAMSLVCEEGKTALVIKDYEAVRAIIAGLLTEVQRIKSEGDYTAGKALVERYAVHVDPLLHEEVLTRYAKLDIAPYKGFVNPRLRPVYNSEGRLTDATIEYTEGYAEQMLRYSAEYSFLPTDSPLLQEARRLRSHLRRAMDGVLSASMREKGLHYGINFGVTREHLLRLARTADASAPLADYLWRRDVRETKILATMIFPAEELTHEQATRLLREADNVELREQLTANLLERMPEAIRSIGRWIESKETTPDMMTGVLTLAARLFTRGIFPEDVPAEKLLTLAILHLSDEEQKAELRRASALLLKRYGRGSAERTKKVLCLLPESSQDTAPVLYELCEDIRFELDFYPKDE
Protein B2 has a Km ([1]; Porphyromonas gingivalis DPP III) of 0.3 µM.

B3: Physcomitrella patens DPP III (Physcomitrium patens) (protein)
chain: MEGFQEEFSLGECLDVLTAAGLRTGDVKKRHLVHADGDYHRAVHVWLFVESTQELVLQKRADCKDSWPGLWDISSAGHISAGDTSLLTARRELQEELGITLPADAFEFLFDYLQECVINGGKYINNEYNDVYLVTLVDHIPVEAFTLQETEVSAVKYMKWQDYEDAVRKEDSSYVPCDVDGGYSALFSALRRRYEVDTSAKLEELQMHINRYVPVEIHGETTGLSKGDLLALSDTIRAAKLLDRIFLEQEWATNPALKDSLQAASGKSELDRLKFAYYLINKSPWSILDENDAFLTTADSAIQIAEGAVDESVTWGGKVRYRAAFPVEKAPGANFYPVDMDKEEFQAWKDGLDKGQQADATSFFTTIRRSGDIHDADGAKVHDLKIVPYSKEYATILKEASYLLHKAGDSAENPSLKRLLKAKADAFLSNDYYESDIAWMELDSPLDVTIGPYETYEDGLFGYKATFEAFIGIRDDEATQRLKLFSHNLQEMEDNLPMDDEYKSKTVTFSPIRVIQLLYNSGDVKGPQTVAFNLPNDDRIVKERGTAMVMLKNISQAKFDYILLPIANVCVEASQRGAVDFDSFFTHTICHECCHGIGPHNIVTPDGRASTVRLELQEVYSAIEEAKADIVGLWALHFLVDKGLLPRSLENTMYVSFLAGCFRSIRFGLEEAHGKGQALQFNFILEKGGFSYHPDGTFSVDYTKVRQCVEDLSRLILTIEAKGDKAGAEALLAKYAALTPQLQQSFDALQDVQVPVDIFPTFKLLDDIKL
Work on B3 yielded a Km ([1]; Physcomitrella patens DPP III) of 23.8 µM.

B4: B. thetaiotaomicron DPP III (Bacteroides thetaiotaomicron VPI-5482) (protein)
chain: MAVTATILASCGGAKTTTAEADKFDYTVEQFADLQILRYKVPEFETLTLKQKELVYYLTQAALEGRDILFDQNGKYNLRIRRMLEAVYTNYKGDKSAPDFKNMEVYLKRVWFSNGIHHHYGMEKFVPGFSQDFLKQAVLGTDAQLLPLSEGQTAEQLCDELFPVMFDPAILAKRVNQADGEDLVLTSACNYYDGVTQQEAESFYGAMKDPKDETPVSYGLNSRLVKEDGKIQEKVWKVGGLYTQAIEKIVYWLKKAETVAENDAQKAVISKLIQFYETGSLKDFDEYAILWVKDLDSRIDFVNGFTESYGDPLGVKASWESLVNFKDLDATHRTEIISSNAQWFEDHSPVDKSFKKEKVKGVSAKVITAAILAGDLYPATAIGINLPNANWIRAHHGSKSVTIGNITDAYNKAAHGNGFNEEFVCNDEERQRIDQYGDLTGELHTDLHECLGHGSGKLLPGVDPDALKAYGSTIEEARADLFGLYYVADPKLVELKLVPDAEAYKAEYYTFLMNGLMTQLVRIEPGNNIEEAHMRNRQLIARWVFEKGAPDKVVEMVKKDGKTYVVVNDYEKVRQLFGELLAEIQRIKSTGDFEGARTLVENYAVKVDPALHAEVLARYKKLNLAPYKGFINPVYELVTDKDGNITDVTVSYNEDYVEQMLRYSKDYSPLPSVNN
With B4 the Km [2] was 0.8 µM.

B5: yeast DPP III (Saccharomyces cerevisiae S288C) (protein)
chain: MSHFFADHDAPLSMLSVKTEYFPQLTDKEQKYAHFMSKASHAGSRVVMRQVSHESEPIFDLILAIHSKLNGKYPEDDITQKQQTGLYLEYVSQFLSNLGNFKSFGDTKFIPRCEVKFFKQLLELAKINPCSSPLTLSPVDVNHEFTSHHLFSTINELIDIGIYHVEEKAALLGFPSQGYTSAYYLGLPVTPEDMALLKEQLFAELAILPENTRINKVGENSFQIWVASENVKNQITETYPSGQITLSNAVTKVEFIFGDHSREMRLVASYLKEAQKFAANDTQKAMLQEYINHFVTGSSQAHKEAQKLWVKDISPVIETNIGFIETYREPSGIIGEFESLVAIQNKERTAKFSSLVNNAEEFISLLPWSKDYEKPIFNPPDFTSLEVLTFTGSGIPAGINIPNYDDVRLKIGFKNVSLGNILSAAAKSSSKHPPSFISQEDRPIFEKYQSDSFEVQVGIHELLGHGSGKLLTEFTDGFNFDKENPPLGLDGKPVSTYYKVGETWGSKFGQLAGPFEECRAEVIAMFLLTNKKILDIFGFHDVESQDKVIYAGYLQMARAGLLALEYWNPKTGKWGQPHMQARFSIMKTFMKHSTDKNFLKLEMNSTNDDFAIKLDKSLIKTAGHECVKDYLKHLHVYKCSGDVEQGSKYFIDRSTVTPDLASLRDIVLSKRLPRRQFIQSNSYIDDNNKVTLKEYDETPQGMLQSFLDREL
Protein B5 has a Km [3] of 12 µM.

B6: Caldithrix abyssi DPP III (Caldithrix abyssi DSM 13497) (protein)
chain: MKRILLVLLTLVFLGAIACQKKEENKTEMVKLKRMIAQFAPTEIKYDHSLLDERKQKVVENLYRAAKIMDEIFLDQVYSKNFEIREQLRASSDPLDQLRLEYFTIMFGPFDRLNHDKPFIGNTPKPKGANFYPPDMTREEFENWLKAHPEDEAAFTSEFTVIRRQDGKLVAIPYSEYYKEYLTRAADYLKKAAEFADNPSLKKYLQLRAEAFLNNDYYESDLAWMDLNDHTIEVVIGPYEVYEDKLFNYKAAFEAFITLRDPVESAKLKKFVGYLDEMEKNLPIPDAYKNFNRGSESPMVVVQEVFSAGDTKAGVQTLAFNLPNDERVREAKGSKKVMLKNIHEAKFDKLLKPIAEKVLFAEQLPLVTFEGFFNHTLMHEISHGLGPGKIVLNGRQTEVKKELKETYSSIEECKADVLGMYNNLFMIEKGVYPPEFEKQIYVTFLAGIFRTIRFGINEAHGAGNAVIFNYLLEKGAYQFDPAAHRVKVNFEKIKDGVRDLANKVLTIQAQGDYMAAKNLLETYAVESEPIMIMRARLQELPVDIKPIFQIEKELGNSN
Work on B6 yielded a Km ([1]; Caldithrix abyssi DPP III) of 15.9 µM.
